According to paper PMC6166816 (Proceedings of the National Academy of Sciences of the …, 2018):
Several values for one entry are separate records, joined by “and”; a condition that tells them apart may be missing. Equal entries are not always repeated.

T1: MNoV (MNV1) strain CW3 VP1 protruding (P) domain (murine norovirus (MNV1 strain CW3), UniProt Q80J94 229-540)
T1 sequence: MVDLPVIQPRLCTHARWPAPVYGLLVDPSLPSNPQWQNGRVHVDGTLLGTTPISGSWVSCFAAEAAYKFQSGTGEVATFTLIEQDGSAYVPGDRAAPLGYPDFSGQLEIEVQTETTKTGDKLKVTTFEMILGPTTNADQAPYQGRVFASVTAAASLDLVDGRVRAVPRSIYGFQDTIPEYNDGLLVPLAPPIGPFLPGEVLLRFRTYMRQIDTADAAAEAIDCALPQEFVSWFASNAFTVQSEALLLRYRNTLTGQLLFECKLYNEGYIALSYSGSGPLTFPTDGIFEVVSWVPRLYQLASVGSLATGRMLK


What was measured:
[1] = target: T1, MNoV (MNV1) strain CW3 VP1 protruding …; assay: BLI
[2] = target: T1, MNoV (MNV1) strain CW3 VP1 protruding …; assay: SPR
[3] = target: T1, MNoV (MNV1) strain CW3 VP1 protruding …; assay: ITC

Binder | Kd [1] [nM] | Kd [2] [µM] | Kd [3] | stoichiometry N [3]
Fc–CD300lf fusion protein (Fc fusion) EDPVTGPEEVSGQEQGSLTVQCRYTSGWKDYKKYWCQGVPQRSCKTLVETDASEQLVKKNRVSIRDNQRDFIFTVTMEDLRMSDAGIYWCGITKGGLDPMFKVTVNIGP | 540 |  |  | 
murine CD300lf ectodomain (receptor) MAEDPVTGPEEVSGQEQGSLTVQCRYTSGWKDYKKYWCQGVPQRSCKTLVETDASEQLVKKNRVSIRDNQRDFIFTVTMEDLRMSDAGIYWCGITKGGLDPMFKVTVNIGPVPT |  | 219 | 24.5 µM and ~24.3 µM and 12 µM | ~1
